Reference: patent US20130109846A1 (published 2013)

B1: 1h-99 (other)
VH: EVQLLESGGGLVQPGGSLRLSCAASGFTFDSANMTWVRQAPGKGLEWVSWIDDTGTQTYYADSVKGRFTISRDNSKNTLYLQMNSLRAEDTAVYYCAKSPFGPLYGFDYWGQGTLVTVSS
B2: 1h-99-203 (other)
VH: EVQLLESGGGLVQPGGSLRLSCAASGFTFYKANMSWARQAPGKGLEWVSWIEDTGTQTFYADSVKGRFTISRDNSKNTLYLQMNSLRAEDTAVYYCAKSPFGPLYGFDYRGQGTLVTVSS
B3: 1h-99-220 (other)
VH: EVQLLESGGGLVQPGGSLRLSCAASGFTFYRSNMSWVRQAPGKGLEWVSWIEDTGTQTFYADSVKGRFTISRDNSKNTLYLQMNSLRAEDTAVYYCAKSPFGPLYGFDYRGQGTLVTVSS
B4: 1h-99-218 (other)
VH: EVQLLESGGGLVQPGGSLRLSCAASGFTFDKSNMSWARQAPGKGLEWVSWIEDTGTQTFYADSVKGRFTISRDNSKNTLYLQMNSLRAEDTAVYYCAKSPFGPLYGFDYRGQGTLVTVSS
B5: 1h-99-217 (other)
VH: EVQLLESGGGLVQPGGSLRLSCAASGFTFSRSNMSWGRQAPGKGLEWVSWIEDTGTQTFYADSVKGRFTISRDNSKNTLYLQMNSLRAEDTAVYYCAKSPFGPLYGFDYRGQGTLVTVSS
B6: 1h-99-201 (other)
VH: EVQLLESGGGLVQPGGSLRLSCAASGFTFHRWNMSWARQAPGKGLEWVSWIEDTGTQTFYADSVKGRFTISRDNSKNTLYLQMNSLRAEDTAVYYCAKSPFGPLYGFDYRGQGTLVTVSS
B7: 1h-99-2116 (other)
VH: EVQLLESGGGLVQPGGSLRLSCAASGFTFKDKNMSWVRQAPGKGLEWVSWIEASGVQTFYADSVKGRFTISRDNSKNTLYLQMNSLRAEDTAVYYCAKSPFGPLYGFDYRGQGTLVTVSS
B8: 1h-99-1 (other)
VH: EVQLLESGGGLVQPGGSLRLSCAASGFTFDSANMTWVRQAPGKGLEWVSWIEDTGTQTFYADSVRGRFTISRDNFKNTLYLQMNSLRAEDTAVYYCAKSPFGPLYGFDYRGQGTLVTVSS
B9: 1h-29 (other)
VH: EVQLLESGGGLVQPGGSLRLSCAASGFTFEDYDMNWVRQAPGKGLEWVSHIDRGGTLTYYADSVKGRFTISRDNSKNTLYLQMNSLRAEDTAVYYCAKSTLMGFDYWGQGTLVTVSS
B10: 1h-239-869 (other)
VL: DIQMTQSPSSLSASVGDRVTITCRASQSIYPFLEWYQQKPGKAPKLLIYFTSRLQSGVPSRFSGSGSGTDFTLTISSLQPEDFATYYCLQNVQMPATFSQGTKVEIKR
B11: 1h-239-870 (other)
VL: DIQMTQSPSSLSASVGDRVTITCRASQSIYPFLEWYQQKPGKAPKLLIYFTSRLQSGVPSRFSGSGSGTDFTLTISSLQPEDFATYYCLQNVMMPATFSQGTKVEIKR
B12: 1h-239-9 (other)
VL: DIQMTQSPSSLSASVGDRVTITCRASQSIYPFLEWYQQKPGKAPKLLIYFTSRLQSGVPSRFSGSGSGTDFTLTISSLQPEDFATYYCLQNVTNPATFGQGTKVEIKR
B13: 1h-239-871 (other)
VL: DIQMTQSPSSLSASVGDRVTITCRASQSIYPFLEWYQQKPGKAPKLLIYFTSRLQSGVPSRFSGSGSGTDFTLTISSLQPEDFATYYCLQNVANPATFSQGTKVEIKR
B14: 1h-93 (other)
VH: EVQLLESGGGLVQPGGSLRLSCAASGFTFPLYEMAWVRQAPGKGLEWVSSIMSNGIRTYYADSVKGRFTISRDNSKNTLYLQMNSLRAEDTAVYYCAKRKSSSSRTVFDYWGQGTLVTVSS
B15: 1h-93-1 (other)
VH: EVQLLESGGGLVQPGGSLRLSCAASGFTFPLYEMAWVRQAPGKGLEWVSSIMSNGTRTYYADSVKGRFTISRDNSKNTLYLQMNSLRAEDTAVYYCAKRESSSSRTVFDYWGQGTLVTVSS
B16: 1h-93-201 (other)
VH: EVQLLESGGGLVQPGGSLRLSCAASGFTFSVSEMAWVRQAPGKGLEWVSSIMSNGIRTYYADSVKGRFTISRDNSKNTLYLQMNSLRAEDTAVYYCARRESSSSRTVFDYWGQGTLVTVSS
B17: 1h-93-2 (other)
VH: EVQLLESGGGLVQPGGSLRLSCAASGFTFPLYEMAWVRQAPGKGLEWVSSIMSNGIRTYYADSVKGRFTISRDNSKNTLYLQMNSLRAEDTAVYYCAKRESSSSRTVFDYWGQGTLVTVSS
B18: 1h-93-204 (other)
VH: EVQLLESGGGLVQPGGSLRLSCAASGFTFYTAEMAWVRQAPGKGLEWVSSIMSNGIRTYYADSVKGRFTISRDNSKNTLYLQMNSLRAEDTAVYYCARRESSSSRTVFDYWGQGTLVTVSS
B19: 1h-33 (other)
VL: DIQMTQSPSSLSASVGDRVTITCRASSNIHNRLNWYQQKPGKAPKLLIYAASSLQSGVPSRFSGSGSGTDFTLTISSLQPEDFATYYCRQWIQPPWTFGQGTKVEIKR
B20: 1h-37 (other)
VH: EVQLLESGGGLVQPGGSLRLSCAASGFTFGTYKMVWVRQAPGKGLEWVSSIGPGGLDTYYADSVKGRFTISRDNSKNTLYLQMNSLRAEDTAVYYCAKSWMTLPITGFDYRGQGTLVTVSS
B21: 1h-31 (other)
VL: DIQMTQSPSSLSASVGDRVTITCRASQSIGYSLAWYQQKPGKAPKLLIYWVSSLQSGVPSRFSGSGSGTDFTLTISSLQPEDFATYYCQQTQRTPFTFGQGTKVEIKR
B22: 1h-32 (other)
VL: DIQMTQSPSSLSASVGDRVTITCRASQNIGHGLAWYQQKPGKAPKLLIYWVSLLQSGVPSRFSGSGSGTDFTLTISSLQPEDFATYYCQQTLSKPFTFGQGTKVEIKR
B23: 1h-30 (other)
VH: EVQLLESGGGLVQPGGSLRLSCAASGFTFAHYHMGWVRQAPGKGLEWVSWIPADGLRTYYADSVKGRFTISRDNSKNTLYLQMNSLRAEDTAVYYCAKYEGAFDYWGQGTLVTVSS
B24: 1h-18-1 (other)
VL: DIQMTQSPSSLSASVGDRVTITCRASQYIGTSLNWYQQKPGKAPKLLTYQASFLQSGVPSRFSGSGSGTDFTLTISSLQPEDFATYYCQQLALRPMTFGQGTKVEIKR
B25: 1h-18-6 (other)
VL: DIQMTQSPSSLSASVGDRVTITCRASQYIGTSLNWYQQKPGKAPKLLIYQASLLQSGVPSRFSGSGYGTDFTLTISSLQPEDFATYYCQQLALRPMTFGQGTKVEIKR
B26: 1h-18-3 (other)
VL: DIQMTQSPSSLSASVGDRVTITCRASQYIGTSLNWYQQKPGKAPKLLTYRASLLQSGVPSRFSGSGSGTDFTLTISSLQPEDFATYYCQQLALRPMTFGQGTKVEIKR
B27: 1h-18-5 (other)
VL: DIQMTQSPSSLSASVGDRVTITCRASQYIGTSLNWYQQKPGKAPKLLTYQASLLQSGVPSRFSGSGSGTDFTLTISSLQPEDFATYYCQQLAMRPMTFGQGTKVEIKW
B28: 1h-99-2112 (other)
VH: EVQLLESGGGLVQPGGSLRLSCAASGFTFKDKNMSWARQAPGKGLEWVSWIEAPGVQTFYADSVRGRFTISRDNSKNTLYLQMNSLRAEDTAVYYCARSPFGPLYGFDYRGQGTLVTVSS
B29: 1h-99-2114 (other)
VH: EVQLLESGGGLVQPGGSLRLSCAASGFTFKDKNMSWARQAPGKGLEWVSWIEAIGVQTFYADSVKGRFTISRDNSKNTLYLQMNSLRAEDTAVYYCAKSPFGPLYGFDYRGQGTLVTVSS
B30: 1h-99-2115 (other)
VH: EVQLLESGGGLVQPGGSLRLSCAASGFTFKDKNMSWVRQAPGKGLEWVSWIEAPGVQTFYADSVRGRFTISRDNSKNTLYLQMNSLRAEDTAVYYCARSPFGPLYGFDYRGQGTLVTVSS
B31: 1h-99-2113 (other)
VH: EVQLLESGGGLVQPGGSLRLSCAASGFTFKDKNMSWARQAPGKGLEWVSWIEASGVQTFYADSVKGRFTISRDNSKNTLYLQMNSLRAEDTAVYYCAKSPFGPLYGFDYRGQGTLVTVSS

Target: human CD28 (human, UniProt P10747 19-220)
Assay: cell-based or functional assay

Row | Binder | MLR assay (EC50) [nM] | Luciferase assay (EC50) [nM]
1 | B1 | 2200 | 
2 | B2 | 10 | 8
3 | B3 | 12 | 10
4 | B4 | 12 | 10
5 | B5 | 15 | 12
6 | B6 | 18 | 14
7 | B7 | 4 | 5
8 | B8 | 19 | 15
9 | B9 |  | > 7000
10 | B10 | 2 | 
11 | B11 | 3 | 
12 | B12 |  | 27
13 | B13 | 3 | 
14 | B14 | 3200 | 2800
15 | B15 | 545 | 493
16 | B16 | 18 | 182

Row | Binder | MLR assay (EC50) [nM] | Luciferase assay (EC50) [nM]
17 | B17 | 830 | 383
18 | B18 | 1200 | 176
19 | B19 |  | 1600
20 | B20 | 1900 | 
21 | B21 |  | 800
22 | B22 |  | 4500
23 | B23 |  | 1200
24 | B24 |  | 5400
25 | B25 |  | 1400
26 | B26 |  | 1000
27 | B27 |  | > 7000
28 | B28 | 2 | 3
29 | B29 | 2 | 4
30 | B30 | 12 | 3
31 | B31 | 3 | 5
